Patent US20100279318A1 (OMEROS, published 2010)

Molecular target: T1, dopamine D5 receptor-GFP (D5-GFP) (Aequoria victoria, UniProt P21918 1-477; P42212 1-238 = GFP)
T1 construct: also called D5 dopamine receptor; not shown: vector-encoded residues between the KpnI site and the start codon of GFP
Test: NLS co-trafficking assay, co-transfected HEK cells, 48 h, confocal microscopy

- binding result: no binding
B1: Dopamine D1 receptor containing a NLS (D1-NLS) (receptor)
chain: MRTLNTSAMDGTGLVVERDFSVRILTACFLSLLILSTLLGNTLVCAAVIRFRHLRSKVTNFFVISLAVSDLLVAVLVMPWKAVAEIAGFWPFGSFCNIWVAFDIMCSTASILNLCVISVDRYWAISSPFRYERKMTPKAAFILISVAWTLSVLISFIPVQLSWHKAKPTSPSDGNATSLAETIDNCDSSLSRTYAISSSVISFYIPVAIMIVTYTRIYRIAQKQIRRIAALERAAVHAKNCQTTTGNGKPVECSQPESSFKMSFKRETKVLKTLSVIMGVFVCCWLPFFILNCILPFCGSGETQPFCIDSNTFDVFVWFGWANSSLNPIIYAFNAKKFKRFSTLLGCYRLCPATNNAIETVSINNNGAAMFSSHHEPRGSISKECNLVYLIPHAVGSSEDLKKEEAAGIARPLEKLSPALSVILDYDTDVSLEKIQPITQNGQHPT
notes: No fluorescent tag; whether that entry is the full-length receptor cannot be seen from the text; The vector of the untagged D1-NLS is not described; also called D1 receptor with the NLS
